Test [1] deals with GPC3 expressed on hepatoma cell line HepG2 (human) (UniProt P51654). Kind of test: flow cytometry on HepG2 cells, secondary antibody alone (background control); mean fluorescence. (In general: A flow cytometer gives signals particle by particle.)
Test [2] has the same target. Kind of test: flow cytometry on HepG2 cells, secondary antibody alone (background control); median fluorescence.

Sequence of GPC3 expressed on hepatoma cell line HepG2 (human) (P51654 25-554 limits assumed): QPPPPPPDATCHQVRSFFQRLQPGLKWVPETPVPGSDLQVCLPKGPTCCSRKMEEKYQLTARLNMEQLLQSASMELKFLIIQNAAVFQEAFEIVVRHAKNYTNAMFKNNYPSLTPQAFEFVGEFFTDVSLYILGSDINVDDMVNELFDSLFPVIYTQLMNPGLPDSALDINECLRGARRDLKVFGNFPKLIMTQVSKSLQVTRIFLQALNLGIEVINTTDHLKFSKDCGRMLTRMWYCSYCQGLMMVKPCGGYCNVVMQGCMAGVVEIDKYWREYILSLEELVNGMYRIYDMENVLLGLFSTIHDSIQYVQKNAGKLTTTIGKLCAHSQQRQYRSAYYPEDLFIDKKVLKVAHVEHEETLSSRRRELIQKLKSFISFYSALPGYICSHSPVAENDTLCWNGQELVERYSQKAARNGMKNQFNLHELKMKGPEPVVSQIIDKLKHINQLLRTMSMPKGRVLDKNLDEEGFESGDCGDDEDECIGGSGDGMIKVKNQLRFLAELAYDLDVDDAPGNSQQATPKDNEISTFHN

The substance “PE-conjugated goat anti-mouse IgG (Biolegend Inc., cat #405307) (antibody)” gave a Mean in test [1] of 243. The Median in test [2] was 205.

Values taken from patent US20240018262A1.
